Columns and labels:
[1] = target: Core-binding region peptide of E-cad, AlexaFluor 488 at the N-terminus (mouse); test: two-focus FCS
[2] = target: Core-binding region peptide of E-cad, AlexaFluor 488 at the C-terminus (mouse); test: two-focus FCS
[3] = target: E-cad construct B (cytoplasmic tail of mouse E-cadherin, FRET labels on the central segment) (mouse) (UniProt P09803); test: single-molecule FRET
[4] = target: E-cad construct C (cytoplasmic tail of mouse E-cadherin, FRET labels on the C-terminal segment) (mouse) (UniProt P09803); test: single-molecule FRET
[5] = target: E-cad construct A (cytoplasmic tail of mouse E-cadherin, FRET labels on the N-terminal segment) (mouse) (UniProt P09803); test: single-molecule FRET

Kd [1]: > 1000 nM
Kd [2]: > 1000 nM
Kd [3]: 4 nM
Kd [4]: 4 nM
Kd [5]: 4 nM
Substance: Full-length murine beta-catenin (from UniProt Q02248 1-781) (natural protein)
